Laboratory results reported in patent publication US20100098681A1 (Janssen / Centocor, published 2010).
Where two headings read alike, the source gives them in different places.

How the values were obtained:
[1] = target: T1, sEGFR-MMB (dimeric sEGFR mimetibody) (human); assay: phage ELISA on coated sEGFR-MMB, chemiluminescence (background typically <200 units)
T1 construct: Disulfide linked homodimer, expressed in 293E cells; also called sEGFR-Fc

[2] = target: T1, sEGFR-MMB (dimeric sEGFR mimetibody); assay: as above; remark: listed apart in the source
[3] = target: T1, sEGFR-MMB (dimeric sEGFR mimetibody); assay: as above; remark: listed apart in the source
[4] = target: T1, sEGFR-MMB (dimeric sEGFR mimetibody); assay: as above; remark: listed apart in the source
Streptavidin alone = assay: phage ELISA, luminescence; streptavidin-coated wells without receptor [panel C]
Method: Confirmatory Phage ELISA. Phage were amplified in XL-1 Blue host cells and purified by precipitation with 6% polyethylene glycol-8000/0.5 M sodium chloride. The precipitated phage were resuspended in phosphate-buffered saline in a volume that was 1/100th the original culture volume. […] The binding reaction was incubated for 1 hr at room temperature, and then bound phage were detected with anti-M13/HRP as above. For ELISAs with biotinylated receptors, streptavidin at 5 μg/ml was coated in the wells overnight at 4° C. […] The wells were rinsed with TBS-T and then blocked with Starting Block. Bound phage were washed and detected with anti-M13/HRP as described above.

Control-MMB (CNTO 360) [5] = target: T2, Control-MMB (CNTO 360) (Homo sapiens (Human), UniProt P0DOX5 111-449 = IgG part); assay: phage ELISA, luminescence; Control-MMB coated on the wells [panel A]
T2 construct: Described as human IgG1 heavy chain dimer absent the variable and most of the CH1 domains; also called blank mimetibody scaffold protein

[6] = target: T1, sEGFR-MMB (dimeric sEGFR mimetibody); assay: phage ELISA, protein coated at 5 ug per mL, chemiluminescence
Method: (§1) The plates were held overnight at room temperature, washed twice with TBST (0.5M Tris Base, 9% NaCl, 0.05% tween, pH 7.6), and loaded with 200 μL per well of Starting Block (Pierce). […] The plates were held at room temperature for 1.5 hours for blocking. Plates were then washed twice with TBST and phage were added. The phage solutions were crude phage supernatant from overnight cultures diluted four-fold with Starting Block. After a one-hour incubation, the plates were washed thrice with TBST and 100 μL of a 1:5000 dilution of phage binding antibody conjugate (a-M13-HRP) was added to the wells. […] After a one-hour incubation the plates were washed five times with TBST, 100 μL of POD (BM Chemiluminescence ELISA substrate; Roche Applied Science) was added, and chemiluminescene recorded.

[7] = target: T3, Human extracellular EGFR-His6 (sEGFR-His6) (human, UniProt P00533 25-645); assay: as above
T3 construct: Monomer, expressed in HEK293E cells, glycosylated; also called sEGFR-6×His; monomeric sEGFR
Method: as §1

Control-MMB (CNTO 360) [8] = target: T2, Control-MMB (CNTO 360); assay: phage ELISA, protein coated at 5 ug per mL
[9] = target: T3, Human extracellular EGFR-His6 …; assay: phage ELISA, coated sEGFR-His6
Method: as §1

[10] = target: T1, sEGFR-MMB (dimeric sEGFR mimetibody); assay: phage ELISA on coated sEGFR-MMB, chemiluminescence (background typically <200 units); remark: listed apart in the source
Method: The protein solution was removed and wells were rinsed twice with Tris-Buffered Saline containing 0.05% Tween-20 (TBS-T) using a plate washer (Embla). The wells were blocked with Starting Block in TBS for 1 hr at room temperature and rinsed twice with TBS-T. An equal volume of phage supernatant and Starting Block in TBS were incubated in the wells for 1 hr at room temperature, and the wells were rinsed five times with TBS-T. Anti-M13/horseradish peroxidase conjugate (Amersham), diluted 1:5000 in Starting Block in TBS, was added into the wells and incubated for 1 hour at room temperature, and then the wells were rinsed five times with TBS-T. Finally, chemiluminescent peroxidase substrate (Roche) was added to the wells, and chemiluminescence was measured on a Tecan plate reader.

biotinylated sEGFR-His6 = target: T4, biotinylated sEGFR-His6 (human, UniProt P00533 25-645, biotinylated (reagent and sites not stated)); assay: phage ELISA, luminescence; biotinylated receptor captured on streptavidin [panel C]
T4 construct: Captured on streptavidin in the ELISA; also called b-sEGFR-His; b-sEGFR-His6

[11] = target: T1, sEGFR-MMB (dimeric sEGFR mimetibody); assay: ELISA, luminescence; sEGFR-MMB immobilized, MMB titrated

T1 sequence (chain, as listed by the source limits assumed): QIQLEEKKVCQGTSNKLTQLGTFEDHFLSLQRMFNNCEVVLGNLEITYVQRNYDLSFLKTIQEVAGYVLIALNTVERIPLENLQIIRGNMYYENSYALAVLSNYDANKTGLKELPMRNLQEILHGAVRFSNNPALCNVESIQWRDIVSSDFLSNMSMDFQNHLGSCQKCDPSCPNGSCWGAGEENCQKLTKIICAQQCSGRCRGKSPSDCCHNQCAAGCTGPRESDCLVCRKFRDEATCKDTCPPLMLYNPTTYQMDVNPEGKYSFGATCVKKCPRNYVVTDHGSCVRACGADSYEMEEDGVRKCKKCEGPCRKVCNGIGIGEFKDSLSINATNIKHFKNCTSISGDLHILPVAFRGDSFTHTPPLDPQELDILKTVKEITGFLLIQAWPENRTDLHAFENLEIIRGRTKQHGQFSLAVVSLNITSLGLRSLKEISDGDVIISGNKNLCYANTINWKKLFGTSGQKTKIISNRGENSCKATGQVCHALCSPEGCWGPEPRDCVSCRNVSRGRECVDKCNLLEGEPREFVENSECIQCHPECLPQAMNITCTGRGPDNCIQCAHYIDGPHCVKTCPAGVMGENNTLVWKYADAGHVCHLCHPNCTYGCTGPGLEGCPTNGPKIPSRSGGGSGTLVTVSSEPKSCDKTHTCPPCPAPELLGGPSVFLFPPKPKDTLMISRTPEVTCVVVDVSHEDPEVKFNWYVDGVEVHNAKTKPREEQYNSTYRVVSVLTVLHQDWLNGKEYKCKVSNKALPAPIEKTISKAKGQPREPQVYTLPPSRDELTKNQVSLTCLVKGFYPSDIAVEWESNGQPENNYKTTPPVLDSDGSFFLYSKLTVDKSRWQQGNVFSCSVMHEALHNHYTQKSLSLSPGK

B1: SEQ ID NO: 49 (S20 hit, pIX phage) (peptide)
chain: GGGLLCATTSFRDWFVCFTGGGSGGSGG
notes: pIX phagemid display; not shown: M13 phage coat protein pIX (MSVL...)
[1]
  ELISA signal: 4510 units

B2: SEQ ID NO: 24 (S18 hit, pIX phage) (peptide)
chain: GGGAKCIAFGNSVYCLNGGGSGGSGG
notes: as for B1
[2]
  ELISA signal: 31500 units

B3: SEQ ID NO: 32 (S18 hit, pIX phage) (peptide)
chain: GGGSDCVLFGSKLFCSAGGGSGGSGG
notes: as for B1
[2]
  ELISA signal: 35300 units

B4: SEQ ID NO: 40 (S19 hit, pIX phage) (peptide)
chain: GGGAFCRLDFNQWLTCLVGGGSGGSGG
notes: as for B1
[3]
  ELISA signal: 2580 units

B5: SEQ ID NO: 16 (S15 hit, pIX phage) (peptide)
chain: GGGSTITSLPTLQCWPILGGGSGGSGG
notes: as for B1
[4]
  ELISA signal: 13300 units

B6: SEQ ID NO: 10 (S15 hit, pIX phage) (peptide)
chain: GGGYRLFVDESIFFCTRLGGGSGGSGG
notes: as for B1
[4]
  ELISA signal: 3080 units

B7: SEQ ID NO: 21 (S15 hit, pIX phage) (peptide)
chain: GGGLPDLICAVDSGTSGAGGGSGGSGG
notes: as for B1
[4]
  ELISA signal: 1160 units

B8: P173 phage (S18, pIX) (peptide)
chain: GGGTDCVIFGLETYCLRGGGSGGSGG
notes: pIX phagemid display; also called PP173; not shown: M13 phage coat protein pIX (MSVL...)
[2]
  ELISA signal: 37900 units

B9: SEQ ID NO: 45 (S20 hit, pIX phage) (peptide)
chain: GGGDSCCSFLTDGTVVCSLGGGSGGSGG
notes: as for B1
[1]
  ELISA signal: 9540 units

B10: SEQ ID NO: 20 (S15 hit, pIX phage) (peptide)
chain: GGGTVFTLPELVCVVAGTGGGSGGSGG
notes: as for B1
[4]
  ELISA signal: 1520 units

B11: P179 phage (S19, pIX) (peptide)
chain: GGGGPCVLIRDYYLLCLEGGGSGGSGG
notes: pIX phagemid display; also called PP179; not shown: M13 phage coat protein pIX (MSVL...)
Streptavidin alone
  binding result: no binding
Control-MMB (CNTO 360) [5]
  binding result: no binding
[3]
  ELISA signal: 14000 units

B12: SEQ ID NO: 41 (S19 hit, pIX phage) (peptide)
chain: GGGCDCREAVSASLVCRYGGGSGGSGG
notes: as for B1
[3]
  ELISA signal: 3350 units

B13: SEQ ID NO: 14 (S15 hit, pIX phage) (peptide)
chain: GGGHVSLQSLPELICVVSGGGSGGSGG
notes: as for B1
[4]
  ELISA signal: 1360 units

B14: SEQ ID NO: 26 (S18 hit, pIX phage) (peptide)
chain: GGGKHCILFEKTVYCAKGGGSGGSGG
notes: as for B1
[2]
  ELISA signal: 9110 units

B15: P190 phage, pIX display (190-phagemid) (peptide)
chain: GGGDPCTWEVWGRECLQGGGSGGSGG
notes: pIX phagemid display, on average one peptide per phage particle; also called PHPEP190; pIX-190; not shown: M13 phage coat protein pIX (MSVL...)
[6]
  Relative Signal: 3940
[7]
  Relative Signal: 6
Control-MMB (CNTO 360) [8]
  binding result: no binding
[9]
  binding result: no binding

B16: SEQ ID NO: 34 (S18 hit, pIX phage) (peptide)
chain: GGGYDCVSFGAVAYCPQGGGSGGSGG
notes: as for B1
[2]
  ELISA signal: 3200 units

B17: SEQ ID NO: 46 (S20 hit, pIX phage) (peptide)
chain: GGGYICTPSDIDSWYICYLGGGSGGSGG
notes: as for B1
[1]
  ELISA signal: 6620 units

B18: SEQ ID NO: 35 (S18 hit, pIX phage) (peptide)
chain: GGGRGCVVFGDNIYCIVGGGSGGSGG
notes: as for B1
[2]
  ELISA signal: 22000 units

B19: SEQ ID NO: 33 (S18 hit, pIX phage) (peptide)
chain: GGGTDCVRFGETIYCIVGGGSGGSGG
notes: as for B1
[2]
  ELISA signal: 13300 units

B20: SEQ ID NO: 15 (S15 hit, pIX phage) (peptide)
chain: GGGNWFSLPTLLCFPLNPGGGSGGSGG
notes: as for B1
[4]
  ELISA signal: 3670 units

B21: SEQ ID NO: 17 (S15 hit, pIX phage) (peptide)
chain: GGGPIDDESLPVLYCVTSGGGSGGSGG
notes: as for B1
[4]
  ELISA signal: 1780 units

B22: SEQ ID NO: 28 (S18 hit, pIX phage) (peptide)
chain: GGGTDCIRFGVLWYCLVGGGSGGSGG
notes: as for B1
[2]
  ELISA signal: 4750 units

B23: SEQ ID NO: 11 (S15 hit, pIX phage) (peptide)
chain: GGGELGLPTLLCWPTDTLGGGSGGSGG
notes: as for B1
[4]
  ELISA signal: 9380 units

B24: SEQ ID NO: 43 (S20 hit, pIX phage) (peptide)
chain: GGGPTCDSATRRVLTICADGGGSGGSGG
notes: as for B1
[1]
  ELISA signal: 5420 units

B25: P178 phage (S17, pIX) (peptide)
chain: GGGRWCYFWWITICELGGGSGGSGG
notes: pIX phagemid display; also called PP178; not shown: M13 phage coat protein pIX (MSVL...)
[10]
  ELISA signal: 7910 units

B26: SEQ ID NO: 12 (S15 hit, pIX phage) (peptide)
chain: GGGVSGILPILVCHPAATGGGSGGSGG
notes: as for B1
[4]
  ELISA signal: 1110 units

B27: SEQ ID NO: 38 (S19 hit, pIX phage) (peptide)
chain: GGGYDCMIRADGSLICWCGGGSGGSGG
notes: as for B1
[3]
  ELISA signal: 1290 units

B28: SEQ ID NO: 29 (S18 hit, pIX phage) (peptide)
chain: GGGRACITFGKVVYCEVGGGSGGSGG
notes: as for B1
[2]
  ELISA signal: 30700 units

B29: SEQ ID NO: 25 (S18 hit, pIX phage) (peptide)
chain: GGGRDCIIFDKTVYCVIGGGSGGSGG
notes: as for B1
[2]
  ELISA signal: 17100 units

B30: SEQ ID NO: 44 (S20 hit, pIX phage) (peptide)
chain: GGGWMCFLEGYGASLMCQCGGGSGGSGG
notes: as for B1
[1]
  ELISA signal: 4800 units

B31: P177 phage (S16, pIX) (peptide)
chain: GGGDACTMVFLWCSLGGGSGGSGG
notes: pIX phagemid display; also called PP177; not shown: M13 phage coat protein pIX (MSVL...)
[10]
  ELISA signal: 8660 units

B32: SEQ ID NO: 30 (S18 hit, pIX phage) (peptide)
chain: GGGAYCSFVAGDLVCQVGGGSGGSGG
notes: as for B1
[2]
  ELISA signal: 19800 units

B33: SEQ ID NO: 18 (S15 hit, pIX phage) (peptide)
chain: GGGPIFSSLPVLYCTSQLGGGSGGSGG
notes: as for B1
[4]
  ELISA signal: 1420 units

B34: P175 phage (S15, pIX) (peptide)
chain: GGGLPDDSLPELICKVRGGGGSGGSGG
notes: pIX phagemid display; also called PP175; not shown: M13 phage coat protein pIX (MSVL...)
Streptavidin alone
  binding result: no binding
[4]
  ELISA signal: 6790 units
Control-MMB (CNTO 360) [5]
  binding result: no binding
Biotinylated sEGFR-His6
  binding result: no binding

B35: SEQ ID NO: 19 (S15 hit, pIX phage) (peptide)
chain: GGGGADTLPDLLCWESSLGGGSGGSGG
notes: as for B1
[4]
  ELISA signal: 5720 units

B36: SEQ ID NO: 47 (S20 hit, pIX phage) (peptide)
chain: GGGSVCVGTAFPGWMVCGPGGGSGGSGG
notes: as for B1
[1]
  ELISA signal: 4770 units

B37: P190-MMB construct 4314 (Fc fusion)
chain: GGDPCTWEVWGRECLQGGGSCPPCPAPEAAGGPSVFLFPPKPKDTLMISRTPEVTCVVVDVSQEDPEVQFNWYVDGVEVHNAKTKPREEQFNSTYRVVSVLTVLHQDWLNGKEYKCKVSNKGLPSSIEKTISKAKGQPREPQVYTLPPSQEEMTKNQVSLTCLVKGFYPSDIAVEWESNGQPENNYKTTPPVLDSDGSFFLYSRLTVDKSRWQEGNVFSCSVMHEALHNHYTQKSLSLSLGK
notes: GG, P190, Flex, human IgG4 hinge-CH2-CH3 with two Leu to Ala changes
[11]
  binding result: binds

B38: SEQ ID NO: 27 (S18 hit, pIX phage) (peptide)
chain: GGGDSCIQFANLLYCAIGGGSGGSGG
notes: as for B1
[2]
  ELISA signal: 53200 units

B39: P180 phage (S19, pIX) (peptide)
chain: GGGMICYLVDSGNIICYKGGGSGGSGG
notes: pIX phagemid display; also called PP180; not shown: M13 phage coat protein pIX (MSVL...)
[3]
  ELISA signal: 8810 units

B40: SEQ ID NO: 23 (S18 hit, pIX phage) (peptide)
chain: GGGAGCIAFVDVVYCARGGGSGGSGG
notes: as for B1
[2]
  ELISA signal: 6380 units
